In this assay the target is taxol-stabilized microtubules polymerized in Xenopus egg extract (Xenopus (endogenous in Xenopus egg extract)). Briefly: co-sedimentation.

Turning to “X-p21-activated kinase (PAK)5, endogenous (natural protein)”, the percent bound was under 70%.

The values are drawn from publication PMC2150914.
